This is an account of results in patent US20200325187A1 (Genentech, published 2020).

First the molecules themselves.
T1: hVEGF-A (8-109) (human, UniProt P15692 214-315)
T1 sequence (looked up): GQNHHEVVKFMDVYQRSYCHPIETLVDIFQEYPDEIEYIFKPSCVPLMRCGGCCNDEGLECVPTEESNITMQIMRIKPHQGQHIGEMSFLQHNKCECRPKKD

The target of the first assay is T1, hVEGF-A (8-109). Put plainly: spot phage ELISA. As for the experimental part:
(§1) After four rounds of binding selection, individual phage clones were picked and inoculated into 450 μl 2YT media containing 50 µg/ml Carbenecillin and M13-KO7 helper phage in 96-well blocks, which were grown at 37° C. overnight. […] The plates were washed and bound phage was detected with anti-M13-HRP followed by TMB substrate. In these assays, phage binding to BSA alone was tested in parallel to assess background binding. […] Positive clones were subjected to DNA sequence analysis.
For the molecule GCLDRTLNWALYCKQDSDCLAGCVCQMYNSCG (designed binder) [VEGF_CKP7.54], the ELISA stood at 0.5 and the “S/N vs BSA” value is 9.3.

With GCKDTTFNWGLFCKQDSDCLAGCVCQLYQSCG (designed binder) [VEGF_CKP7.78], the ELISA worked out at 0.7 and the “S/N vs BSA” value was found to be 11.8.

For the molecule GCLDPTVNWALFCKQDSDCLAGCVCQHYKTCG (designed binder) [VEGF_CKP7.81], the ELISA turned out to be 1.1 and the “S/N vs BSA” value was found to be 18.6.

As to GCQDPTVNWAVYCKQDSDCLAGCVCQFYQSCG (designed binder) [VEGF_CKP7.17], the ELISA was determined as 0.8 and the “S/N vs BSA” value came to 13.4.

As to GCEDPTVDWAQYCKQDSDCLAGCVCQMYQSCG (designed binder) [VEGF_CKP7.46], the ELISA was 0.3 and the “S/N vs BSA” value was determined as 4.9.

For the molecule GCQDPTFNWAEYCKQDSDCLAGCVCQMYQSCG (designed binder) [VEGF_CKP7.35], the ELISA came out at 0.6 and the “S/N vs BSA” value stood at 10.6.

In the case of GCLDPSFNWSLYCKQDSDCLAGCVCQMYDSCG (designed binder) [VEGF_CKP7.57], the ELISA worked out at 1 and the “S/N vs BSA” value amounted to 17.4.

As to GCQDPTFNWAEYCKQDSDCLAGCVCQLYQSCG (designed binder) [VEGF_CKP7.19], the ELISA is 0.6 and the “S/N vs BSA” value was 11.1.

As to GCQDPSLNWADYCKQDSDCLAGCVCQMHQSCG (designed binder) [VEGF_CKP7.50], the ELISA is 0.8 and the “S/N vs BSA” value was 14.3.

GCWDPTFNWALYCKQDSDCLAGCVCQMYDSCG (designed binder) [VEGF_CKP7.24]: the ELISA was 0.8 and the “S/N vs BSA” value worked out at 13.4.

For the molecule GCQDPTLNWATYCKQDSDCLAGCVCQMYQSCG (designed binder) [VEGF_CKP7.43], the ELISA is 0.5 and the “S/N vs BSA” value was determined as 6.3.

Consider GCLDPSFDWALYCKQDSDCLAGCVCQLYNSCG (designed binder) [LRP6_CKP7.89], for which the ELISA stood at 0.5 and the “S/N vs BSA” value turned out to be 8.1.

Take GCRDLTINWALFCKQDSDCLAGCVCQMFNSCG (designed binder) [VEGF_CKP7.73]: the ELISA stood at 1.2 and the “S/N vs BSA” value came to 19.2.

For the molecule GCKNPLFNWALYCKQDSDCLAGCVCQLFDSCG (designed binder) [VEGF_CKP7.8], the ELISA came out at 0.5 and the “S/N vs BSA” value stood at 7.5.

GCDDPSFDWSVYCKQDSDCLAGCVCRMYDSCG (designed binder) [VEGF_CKP7.2]: the ELISA was found to be 1.2 and the “S/N vs BSA” value amounted to 21.5.

Take GCQDPKLNWAVYCKQDSDCLAGCVCQLFNSCG (designed binder) [VEGF_CKP7.88]: the ELISA turned out to be 0.5 and the “S/N vs BSA” value came to 7.7.

In another assay the target is T1, hVEGF-A (8-109). Put plainly: spot phage ELISA. This is another data set of the same source. As to the method:
as §1
On the technique in general: ELISA stands for enzyme-linked immunosorbent assay.
Turning to GCDRMQPYWGCKQDSDCLAGCVCQWYKSCG (designed binder) [VEGF_CKP9.11], the ELISA was found to be 1.1 and the “S/N vs BSA” value is 14.1.

As for GCKLLQPMWGCKQDSDCLAGCVCRWYQSCG (designed binder) [VEGF_CKP9.14], the ELISA amounted to 2 and the “S/N vs BSA” value was found to be 30.1.

Turning to GCKIMQPLWGCKQDSDCLAGCVCLWYDSCG (designed binder) [VEGF_CKP9.47], the ELISA worked out at 1 and the “S/N vs BSA” value amounted to 14.6.
